The sequences below were run on Escherichia coli TOP10 (assay: shrunken log2 fold change of peptide-encoding DNA abundance (4.5 h post-induction vs induction); higher = less antimicrobial activity (less host growth inhibition)). Settings: time post-induction: 4.5 h; library: site-saturation at positions 5, 18, 19, 20.
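Note: peptides expressed intracellularly from a pBAD plasmid library in pooled LB shake-flask culture, induced with 0.3% L-arabinose, DNA abundance read by NGS, three biological replicates, DESeq2 with apeglm shrinkage.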

Row | Sequence | shrunken log2 fold change
1 | RRIRCRPPRLPRPRPRPTEHPRP | 0.00581
2 | RRIRSRPPRLPRPRPRPDKQPRP | -0.0566
3 | RRIRIRPPRLPRPRPRPVACPRP | -0.154
4 | RRIRFRPPRLPRPRPRPMSTPRP | -0.386
5 | RRIRPRPPRLPRPRPRPWWMPRP | 0.0483
6 | RRIRRRPPRLPRPRPRPEGTPRP | 0.28
7 | RRIRDRPPRLPRPRPRPLTYPRP | -0.339
8 | RRIRRRPPRLPRPRPRPQVIPRP | -0.0307
9 | RRIRRRPPRLPRPRPRPNWAPRP | 0.164
10 | RRIRQRPPRLPRPRPRPNWMPRP | 0.0507
11 | RRIRYRPPRLPRPRPRPQYSPRP | -1.71
12 | RRIRNRPPRLPRPRPRPISFPRP | -0.0972
13 | RRIRWRPPRLPRPRPRPNEYPRP | -0.39
14 | RRIRERPPRLPRPRPRPWLYPRP | 0.102
15 | RRIRYRPPRLPRPRPRPYMHPRP | 0.0498
16 | RRIRVRPPRLPRPRPRPMYMPRP | -0.748
17 | RRIRERPPRLPRPRPRPDPLPRP | 0.00979
18 | RRIRVRPPRLPRPRPRPEQHPRP | 0.262
19 | RRIRLRPPRLPRPRPRPMYIPRP | -0.172
20 | RRIRSRPPRLPRPRPRPHYGPRP | -0.00176

Row | Sequence | shrunken log2 fold change
21 | RRIRPRPPRLPRPRPRPTTQPRP | 0.0237
22 | RRIRMRPPRLPRPRPRPGRQPRP | -0.00182
23 | RRIRVRPPRLPRPRPRPQRHPRP | -0.0604
24 | RRIRTRPPRLPRPRPRPVWSPRP | -0.00993
25 | RRIRNRPPRLPRPRPRPTSEPRP | 0.194
26 | RRIRGRPPRLPRPRPRPLTYPRP | 0.279
27 | RRIRNRPPRLPRPRPRPPSDPRP | -0.118
28 | RRIRHRPPRLPRPRPRPTTPPRP | 0.0328
29 | RRIRIRPPRLPRPRPRPSVNPRP | -0.225
30 | RRIRKRPPRLPRPRPRPYPQPRP | 0.0235
31 | RRIRWRPPRLPRPRPRPQWQPRP | 0.0209
32 | RRIRLRPPRLPRPRPRPCRFPRP | -0.226
33 | RRIRWRPPRLPRPRPRPKCHPRP | 0.206
34 | RRIRPRPPRLPRPRPRPYAGPRP | -0.00254
35 | RRIRERPPRLPRPRPRPELQPRP | -0.0137
36 | RRIRPRPPRLPRPRPRPDKLPRP | 0.038
37 | RRIRDRPPRLPRPRPRPLIFPRP | 0.135
38 | RRIRNRPPRLPRPRPRPRDYPRP | -0.0159
39 | RRIRFRPPRLPRPRPRPNVWPRP | 0.0725
40 | RRIRCRPPRLPRPRPRPHKDPRP | -0.636

Row | Sequence | shrunken log2 fold change
41 | RRIRDRPPRLPRPRPRPLLHPRP | 0.114
42 | RRIRSRPPRLPRPRPRPPSAPRP | 0.646
43 | RRIRFRPPRLPRPRPRPLSIPRP | -0.203
44 | RRIRYRPPRLPRPRPRPAYIPRP | -0.00172
45 | RRIRARPPRLPRPRPRPWFDPRP | -0.178
46 | RRIRVRPPRLPRPRPRPNFMPRP | 0.0796
47 | RRIRQRPPRLPRPRPRPLMFPRP | -0.137
48 | RRIRGRPPRLPRPRPRPWAAPRP | 0.539
49 | RRIRTRPPRLPRPRPRPEPSPRP | 0.534
50 | RRIRYRPPRLPRPRPRPIQLPRP | -0.0605
51 | RRIRIRPPRLPRPRPRPFDQPRP | -0.385
52 | RRIRMRPPRLPRPRPRPLTAPRP | 1.15
53 | RRIRGRPPRLPRPRPRPNVTPRP | 0.35
54 | RRIRCRPPRLPRPRPRPFHWPRP | -0.195
55 | RRIRNRPPRLPRPRPRPCIIPRP | -0.0176
56 | RRIRKRPPRLPRPRPRPVWSPRP | -0.0616
57 | RRIRTRPPRLPRPRPRPLHQPRP | 0.0302
58 | RRIRNRPPRLPRPRPRPEVSPRP | -0.0183
59 | RRIRYRPPRLPRPRPRPMNSPRP | -0.0134
60 | RRIRVRPPRLPRPRPRPEEDPRP | 0.0704

Source: the supplement of paper PMC9112550, “Optimization of the antimicrobial peptide Bac7 by deep mutational scanning” (BMC Biology, 2022)
